B1: Zif-0-PE1A (structured_DNA)
DNA: GGCGTTATTTATCGCCCACGCGGGTTTTCCCGCGTGGGCGATAAATAACGCC
B2: mCpG-Zif268 (dsDNA)
DNA 1: GCGTACGTAGGACGATACGCCCACGCCACCG
DNA 2: CGGTGGCGTGGGCGTATCGTCCTACGTACGC
modifications: 5mC at the CpG on both strands (GTAmCGTA)

Assays:
[1] = biological target: LacA-Zif268 + PE1A-LacB (split beta-lactamase SEER pair) (artificial, UniProt O73693; SEQ:189-286,SEQ:1-88); assay: split beta-lactamase reassembly on cognate target
[2] = biological target: NGFP-Zif268 + CGFP-MBD2 (human MBD2 residues 147-215; mCpG-SEER pair) (artificial, UniProt P08046;Q9UBB5 P08046:333-419,Q9UBB5:147-215); assay: split GFP reassembly; used as reference (relative fluorescence 1) for specificity set; Zn buffer, 4 C

| Binder | binding result [1] | binding result [2] |
| --- | --- | --- |
| B1 | binds |  |
| B2 |  | binds |

From patent publication US20090068164 (published 2009)
